The results in this text go back to article PMC7935746.

Experiment [1] deals with His-tagged TriC transporter (Pseudomonas aeruginosa). The experiment can be described thus: cryo-EM structure.
For experiment [2] the target is unchanged. The experiment can be described thus: SEC. On the technique in general: SEC sorts molecules by how far they enter the pores of the column.

In the case of “His-tagged TriC transporter (natural protein)”, the stoichiometry N in experiment [1] and in experiment [2] was 3 in each case.

For the substance “fused TriAB dimer (TriA and TriB on one polypeptide)”, the stoichiometry N in experiment [2] was determined as 1.

The stoichiometry N is the number of molecules, sites or subunits per partner or assembly.
